T1: CXCR2 (interleukin 8 receptor beta chain) (human, UniProt P25025 1-360)
T1 construct: whole, on cells
T1 sequence: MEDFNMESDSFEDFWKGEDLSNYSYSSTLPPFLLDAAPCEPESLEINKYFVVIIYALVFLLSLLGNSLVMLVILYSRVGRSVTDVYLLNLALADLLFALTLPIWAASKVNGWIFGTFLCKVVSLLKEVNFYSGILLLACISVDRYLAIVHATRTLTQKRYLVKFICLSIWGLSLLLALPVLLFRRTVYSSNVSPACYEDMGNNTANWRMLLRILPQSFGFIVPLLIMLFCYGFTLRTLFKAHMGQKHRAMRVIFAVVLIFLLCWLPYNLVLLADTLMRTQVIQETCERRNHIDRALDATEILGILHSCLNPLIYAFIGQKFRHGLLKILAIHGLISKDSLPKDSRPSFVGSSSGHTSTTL

T2: CXCR1 (interleukin 8 receptor alpha chain) (human, UniProt P25024 1-350)
T2 construct: whole, on cells
T2 sequence: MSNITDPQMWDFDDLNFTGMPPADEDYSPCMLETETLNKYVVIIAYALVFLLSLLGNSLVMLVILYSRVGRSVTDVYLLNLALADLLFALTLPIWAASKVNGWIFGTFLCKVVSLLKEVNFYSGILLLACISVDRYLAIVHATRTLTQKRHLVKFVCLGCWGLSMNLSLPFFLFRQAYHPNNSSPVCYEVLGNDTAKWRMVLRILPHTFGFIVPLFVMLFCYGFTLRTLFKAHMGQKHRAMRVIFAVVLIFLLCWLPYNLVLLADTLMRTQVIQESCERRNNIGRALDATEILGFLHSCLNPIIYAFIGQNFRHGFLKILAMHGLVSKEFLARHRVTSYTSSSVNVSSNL

B1: GFP-LukE (green fluorescent protein-fused LukE) (other)
chain: NTNIENIGDGAEVIKRTEDVSSKKWGVTQNVQFDFVKDKKYNKDALIVKMQGFINSRTSFSDVKGSGYELTKRMIWPFQYNIGLTTKDPNVSLINYLPKNKIETTDVGQTLGYNIGGNFQSAPSIGGNGSFNYSKTISYTQKSYVSEVDKQNSKSVKWGVKANEFVTPDGKKSAHDRYLFVQSPNGPTGSAREYFAPDNQLPPLVQSGFNPSFITTLSHEKGSSDTSEFEISYGRNLDITYATLFPRTGIYAERKHNAFVNRNFVVRYEVNWKTHEIKVKGHN
notes: also called LukE-GFP
B2: His-LukE (N-terminal 6xHis-tagged Leukocidin E, S. aureus Newman) (other)
chain: B1 chain

Columns and labels:
[1] = target: T1, CXCR2 (interleukin 8 receptor beta …); assay: flow cytometry, GFP-toxin on primary human PMNs (CXCR1/CXCR2+ cells)
[2] = target: T2, CXCR1 (interleukin 8 receptor alpha …); assay: as above
[3] = target: T1, CXCR2 (interleukin 8 receptor beta …); assay: legend of FIGS. 6A-6E: flow cytometry on PMNs and pulldown
[4] = target: T2, CXCR1 (interleukin 8 receptor alpha …); assay: as above

Binder	binding result [1]	binding result [2]	binding result [3]	binding result [4]
B1	binds	binds		
B2			binds	binds
